Patent US20190352411A1 (ALLIGATOR BIOSCIENCE, published 2019)
Where two headings read alike, the source gives them in different places.

Columns and labels:
[1] = molecular target: T1, cynomolgus CD137 on transfected CHO cells (CHO-cyCD137) (cynomolgus (Macaca fascicularis); human); experiment: flow cytometry on CHO-cyCD137 cells; 95% confidence interval of the EC50
T1 construct: extracellular domain;domain: transmembrane and intracellular part; also called cyno CD137
Method: (§1) Binding and EC50 was determined using flow cytometric of CHO cells transfected with human CD137, cynomolgus CD137 or empty vector. The extracellular part of human or cynomolgus CD137 was fused to the transmembrane and intracellular part of human CD40 and cloned into pcDNA3.1. The vector was subsequently stably transfected into CHO cells. […] CD137-transfected and empty vector-transfected cells were incubated with CD137 antibodies for at least 1 h at 4° C. to saturate the binding. In order to minimize antibody internalization, 0.05% sodium azide was used in the incubation buffer and all work was performed on ice. The CD137 antibodies were detected using PE-conjugated anti-hIgG antibody (109-115-098, Jackson Immunoresearch laboratories), incubated for 30 min at 4° C. Directly after staining the cells were fixed with a paraformaldehyde solution (10× concentrate BD CellFIX, BD biosciences #340181). Cells were analyzed by flow cytometry using FACSVerse (BD Biosciences). The median fluorescence intensity (MFI) for each sample was determined and the dose response data was analysed using Graph Pad Prism.
(§2) MFI data was normalized for each antibody, where 0% is defined as the lowest value and 100% is the highest value in the dose titration for each antibody.

[2] = molecular target: T2, human FcγRIIa (R&D Systems #1330-CD-050) (human, UniProt P12318 36-218, limits assumed); experiment: Octet (BLI), antibody captured on FAB2G tips, soluble FcγR as analyte, 1:1 model
T2 construct: Soluble analyte in the Octet assay
T2 sequence (looked up): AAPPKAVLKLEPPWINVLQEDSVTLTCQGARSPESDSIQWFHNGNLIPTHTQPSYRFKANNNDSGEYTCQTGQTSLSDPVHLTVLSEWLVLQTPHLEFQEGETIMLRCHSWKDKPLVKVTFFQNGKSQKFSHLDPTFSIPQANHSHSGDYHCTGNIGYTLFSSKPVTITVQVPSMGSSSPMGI
From the text: (§3) The processed data was fitted using a 1:1 Langmuir binding model with X² as a measurement of fitting accuracy.

[3] = molecular target: T3, human FcγRIIb (R&D Systems #1460-CD-050) (human, UniProt P31994 46-217, limits assumed); experiment: as above
T3 construct: Soluble analyte in the Octet assay
T3 sequence (looked up): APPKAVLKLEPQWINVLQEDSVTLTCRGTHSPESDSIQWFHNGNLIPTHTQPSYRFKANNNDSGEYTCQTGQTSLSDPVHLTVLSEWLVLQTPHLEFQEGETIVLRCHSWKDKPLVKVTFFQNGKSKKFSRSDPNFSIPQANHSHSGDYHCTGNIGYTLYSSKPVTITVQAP
From the text: as §3

[4] = molecular target: T4, 1553: Human CD137 with mouse domains 3A, 3B and 4A (aa 87-133) (human; mouse, UniProt P20334 86-133); experiment: flow cytometry on transfected 293-F cells, human/mouse CD137 chimera
T4 construct: domain: domains 3A, 3B and 4A (aa 87-133); Human/mouse chimera transiently expressed on FreeStyle 293-F cells
Method: (§4) The ability of each antibody to bind to a panel of human/mouse CD137 chimeras expressed on the surface of transfected cells was analyzed by flow cytometry.
(§5) The chimeras were designed by exchanging domains or modules of the human CD137 with the corresponding mouse domain. Genes of CD137 human/mouse chimeras were synthesized (GenScript) and constructs cloned into pcDNA3.1 vector (Invitrogen) and transiently transfected into FreeStyle 293-F cells (Invitrogen). The transfected cells were incubated with CD137 antibodies and control antibodies, followed by incubation with anti-human IgG-PE (Jackson Immunoresearch) for detection and analyzed with FACS Verse (BD Biosciences). Binding to the different chimeric constructs was calculated as relative MFI compared to the binding of the isotype control, followed by normalization to the full-length human CD137 construct to minimize the effect of affinity differences between individual antibodies.

[5] = molecular target: T5, 1555: Human CD137 with mouse domains 1 and 4B and region of unknown function (aa 24-46 and aa 139-186) (human; mouse, UniProt P20334 24-45; P20334 139-185); experiment: as above
T5 construct: Human/mouse chimera transiently expressed on FreeStyle 293-F cells
Method: as §4, §5

[6] = molecular target: T6, 1551: Human CD137 with mouse domains 2A, 2B and 3A (aa 47-96) (human; mouse, UniProt P20334 46-95); experiment: as above
T6 construct: domain: domains 2A, 2B and 3A (aa 47-96); Human/mouse chimera transiently expressed on FreeStyle 293-F cells
Method: as §4, §5

[7] = molecular target: T7, 1552: Human CD137 with mouse domains 2B, 3A and 3B (aa 64-118) (human; mouse, UniProt P20334 63-117); experiment: as above
T7 construct: Human/mouse chimera transiently expressed on FreeStyle 293-F cells
Method: as §4, §5

[8] = molecular target: T8, 1550: Human CD137 with mouse domains 1, 2A and 2B (aa 24-86) (human; mouse, UniProt P20334 24-85); experiment: as above
T8 construct: domain: domains 1, 2A and 2B (aa 24-86); Human/mouse chimera transiently expressed on FreeStyle 293-F cells; Limits of the human pieces are worked out from the printed aa range
Method: as §4, §5

[9] = molecular target: T9, 1554: Human CD137 with mouse domains 3B, 4A and 4B (aa 97-159) (human; mouse, UniProt P20334 96-159); experiment: as above
T9 construct: domain: domains 3B, 4A and 4B (aa 97-159); Human/mouse chimera transiently expressed on FreeStyle 293-F cells
Method: as §4, §5

[10] = molecular target: T1, cynomolgus CD137 on transfected CHO …; experiment: flow cytometry on CHO-cyCD137 cells; 95% confidence interval of the EC50; remark: listed apart in the source
[11] = molecular target: cynomolgus CD137 (Acro Biosystems #41B-C52H4) (cynomolgus, UniProt A9YYE7 24-186); experiment: Octet (BLI), antibody amine-coupled to ARG2 biosensor, soluble CD137 as analyte, 1:1 model
Method: Materials and method CD137 affinity was determined using the Octet Red 96 platform (ForteBio). […] 7 2-fold serial dilutions of CD137 (Acro Biosystems #41B-H5227 and #41B-C52H4) from 100 nM was prepared in 1× kinetic buffer (ForteBio #18-1092). Association was measured for 180 s followed by dissociation for 180 s in 1× kinetic buffer. 10 mM Glycine pH 2.2 was used for regeneration.
Data generated was referenced by reference well subtraction (1188), the baseline was aligned with the y-axis, inter-step correlation by alignment against association was performed and the data was smoothed by a Savitzky-Golay filtering in the data analysis software (v.9.0.0.14). The processed data was fitted using a 1:1 Langmuir binding model with X² as a measurement of fitting accuracy.

[12] = molecular target: T10, human CD137 on transfected CHO cells (CHO-huCD137) (human); experiment: flow cytometry on CHO-huCD137 cells; 95% confidence interval of the EC50
T10 construct: domain: transmembrane and intracellular part
Method: as §1, §2

[13] = molecular target: T10, human CD137 on transfected CHO cells …; experiment: as above; remark: listed apart in the source
Method: as §1, §2

T1 sequence (P25942 other isoform, or with tags, fused parts or gaps): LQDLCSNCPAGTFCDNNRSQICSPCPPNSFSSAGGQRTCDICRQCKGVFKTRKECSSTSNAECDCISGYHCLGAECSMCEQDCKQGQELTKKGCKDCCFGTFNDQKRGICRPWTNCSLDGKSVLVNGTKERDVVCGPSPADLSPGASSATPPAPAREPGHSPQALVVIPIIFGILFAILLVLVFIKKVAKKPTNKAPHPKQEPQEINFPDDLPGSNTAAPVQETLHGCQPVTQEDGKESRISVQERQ
T10 sequence (P25942 other isoform, or with tags, fused parts or gaps limits assumed): as the sequence (P25942 other isoform, or with tags, fused parts or gaps) above, with L4P, S19N, K50R, I66T, S67P, Y69F, E75G, A149V counted along it
T7 sequence (P20334 other isoform, or with tags, fused parts or gaps limits assumed): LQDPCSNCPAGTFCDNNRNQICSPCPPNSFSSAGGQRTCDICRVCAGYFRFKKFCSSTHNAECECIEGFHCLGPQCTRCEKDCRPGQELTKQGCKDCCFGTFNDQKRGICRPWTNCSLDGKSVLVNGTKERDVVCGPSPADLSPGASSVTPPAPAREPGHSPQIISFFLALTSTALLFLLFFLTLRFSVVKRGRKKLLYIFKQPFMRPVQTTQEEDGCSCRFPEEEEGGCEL
T5 sequence (P20334 other isoform, or with tags, fused parts or gaps limits assumed): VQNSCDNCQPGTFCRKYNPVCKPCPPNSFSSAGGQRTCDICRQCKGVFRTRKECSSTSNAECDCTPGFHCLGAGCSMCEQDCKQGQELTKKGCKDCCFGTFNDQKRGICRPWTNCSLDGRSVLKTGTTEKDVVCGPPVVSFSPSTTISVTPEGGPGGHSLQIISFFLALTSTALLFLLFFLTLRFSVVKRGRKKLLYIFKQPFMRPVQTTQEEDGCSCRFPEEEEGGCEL
T4 sequence (P20334 other isoform, or with tags, fused parts or gaps limits assumed): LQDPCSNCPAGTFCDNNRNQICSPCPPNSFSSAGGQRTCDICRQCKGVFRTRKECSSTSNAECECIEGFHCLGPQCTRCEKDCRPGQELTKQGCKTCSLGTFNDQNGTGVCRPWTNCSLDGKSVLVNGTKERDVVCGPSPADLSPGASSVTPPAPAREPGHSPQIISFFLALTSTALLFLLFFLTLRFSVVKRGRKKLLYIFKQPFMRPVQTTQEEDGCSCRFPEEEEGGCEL
T9 sequence (P20334 other isoform, or with tags, fused parts or gaps limits assumed): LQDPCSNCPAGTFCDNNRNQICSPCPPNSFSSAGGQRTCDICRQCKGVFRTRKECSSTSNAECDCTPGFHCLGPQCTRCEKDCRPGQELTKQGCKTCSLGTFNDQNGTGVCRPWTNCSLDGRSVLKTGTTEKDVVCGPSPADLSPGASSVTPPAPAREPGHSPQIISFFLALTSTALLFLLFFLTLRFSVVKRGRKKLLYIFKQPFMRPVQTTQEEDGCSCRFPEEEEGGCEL
cynomolgus CD137 (Acro Biosystems #41B-C52H4), sequence (A9YYE7 entry or part of it): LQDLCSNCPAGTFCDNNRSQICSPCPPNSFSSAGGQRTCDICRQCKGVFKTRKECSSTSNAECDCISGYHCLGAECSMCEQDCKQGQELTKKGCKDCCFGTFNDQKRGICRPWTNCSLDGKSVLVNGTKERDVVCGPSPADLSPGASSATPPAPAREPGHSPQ
T6 sequence (P20334 other isoform, or with tags, fused parts or gaps limits assumed): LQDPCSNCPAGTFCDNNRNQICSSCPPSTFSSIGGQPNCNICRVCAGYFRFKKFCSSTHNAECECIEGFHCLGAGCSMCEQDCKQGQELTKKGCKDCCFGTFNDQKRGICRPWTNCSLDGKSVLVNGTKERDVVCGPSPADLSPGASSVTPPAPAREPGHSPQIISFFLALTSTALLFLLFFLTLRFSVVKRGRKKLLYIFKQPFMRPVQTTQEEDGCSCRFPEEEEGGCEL
T8 sequence (P20334 other isoform, or with tags, fused parts or gaps limits assumed): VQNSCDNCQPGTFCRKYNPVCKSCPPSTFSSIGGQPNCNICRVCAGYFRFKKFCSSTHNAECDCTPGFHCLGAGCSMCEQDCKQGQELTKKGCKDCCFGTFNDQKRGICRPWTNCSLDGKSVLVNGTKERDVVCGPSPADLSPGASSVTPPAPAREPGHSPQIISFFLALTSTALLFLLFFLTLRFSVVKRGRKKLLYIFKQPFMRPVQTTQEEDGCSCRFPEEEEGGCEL

B1: REF2 (antibody)
chain 1: not shown
chain 2: DIVMTQSPDSLSVSLGERATINCRASKSVDSYGNSFMHWYQQKPGQPPKLLIYLASNLESGVPDRFSGSGSGTDFTLTISSLQAEDVAVYYCQQNNEDPRTFGGGTKVEIKRTVAAPSVFIFPPSDEQLKSGTASVVCLLNNFYPREAKVQWKVDNALQSGNSQESVTEQDSKDSTYSLSSTLTLSKADYEKHKVYACEVTHQGLSSPVTKSFNRGEC
Q: What does the source list for B1?
A: EC50 [1]: 0.41 to 0.56 nM; Kd [2]: 587 nM; Kd [3]: 2700 nM; MFI antibody/isotype control, normalized to full-length human CD137 [4]: 0.17; MFI antibody/isotype control, normalized to full-length human CD137 [5]: 0.26; MFI antibody/isotype control, normalized to full-length human CD137 [6]: 0.37; MFI antibody/isotype control, normalized to full-length human CD137 [7]: 0.19; MFI antibody/isotype control, normalized to full-length human CD137 [8]: 0.22; MFI antibody/isotype control, normalized to full-length human CD137 [9]: 0.16; EC50 [10]: 0.13 to 0.24 µg/mL; Kd [11]: 10 nM; EC50 [12]: 0.21 to 0.31 µg/mL; EC50 [13]: 0.16 to 0.27 nM
